The source of these data is the nanobody polyreactivity screen of Harvey et al. (2022).

The nature of this series: yeast display, Sf9 membrane polyspecificity reagent, FACS + sequencing; frameworks hold sequencing errors. An outline of the steps: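 Galactose induction of a Saccharomyces cerevisiae BJ5465 synthetic nanobody display library ran 36–48 hours. The cells were then stained for 1 hour at 4 °C with 10% biotinylated, detergent-solubilized Sf9 membrane reagent, pulled down on streptavidin microbeads and FACS-sorted into low and high (top ~1%) gates on expression and reagent-binding fluorescence. Labels for polyreactivity follow the gate of origin.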
“QVQLVESGGCLVQAGGSLRLSCASSGFTIWQNAMGWYRQAPGKERELVAGIRLSGGSTYADSEKGRFTISRDNAKNTVYLQMNSLKPEDTAVYYCAARIAGYYRYRSLRYDYWGQGTQGTVSS”: the “polyreactivity (PSR sort gate)” value is recorded as “high polyreactivity”. Regarding “QVQLVESGGCLVQAGGSLRLSGAASGSISYRNSMGWYRQAPGKERELVAAISSRGGSTFYADSEKGRFTISRDNAKNTVYLQMNSLKPEDTAVYYCAARGYHRFKNVNYWGQGTQVTVSS”, the “polyreactivity (PSR sort gate)” value is given as “high polyreactivity”. As to “QVQLVESGGCLVQAGGSLRLSSAASGSTFRVNAMGWYRQAPGKERELVAAISFSGGSTYYADSVKGRFTISRDNAKNTVYLQMNSLKPEDTAVYYCNVDIYLGGDYYYSRYTWGLDYWGQGTQVTVSS”, the “polyreactivity (PSR sort gate)” value was “low polyreactivity”.

Take “QVQLVESGGCLVQAGGSLSLSCAASGFTFTYYDMGWYRQAPGKERELVAAITRRGGRTYYADSVKGRFTISRDNAKNTVYLQMNSLKPEDTAVYYCNADEYGGSTGRKGRYNYWGQGTQVTVSS”: the “polyreactivity (PSR sort gate)” value is on record as “low polyreactivity”. With “QVQLVESGGCLVQAGGSPRLSCAASGSILTLYAMGWYRQAPGKERELVAAITSGERTNYADSVKGRFTISRDNAKNTVYLQMNSLKPEDTAVYYCATKRWWGRYDYWGQGTQVTVSS” the entry was “high polyreactivity”; with “QVQLVESGGCLVQAGGTLRLSCAASGRIFVSYVMGWYSQAPGKEREFVAAIRRSGSSTYYADSVKGRFTISRDNEKNTVYLQMNSLKPEDTAVFYCAAYQRSRTLRRYDYWGQGTEVTVSS”, “high polyreactivity”; with “QVQLVESGGCLVQARGSLRLSCASSGRMISYNAMGWYRQRPGKDMELGAAINSSGGSTYDADSVKGRFTISRDNAKNTVSLQMNSLKAEDTAFYYCNVLHIPSTTMDYWPQGTQVTVSS”, “high polyreactivity”. With “QVQLVESGGDLVQAGGSLRLSCAASGSIFCYYVMGWYRQAPGKERELVAAITVSGAGTYNADSVKGRFTISRDNAKNTVYLQMNSLKPEDTAVYYCAARWLGHFYPFFLQGLSGFDYWGQGTQVTVSS” the entry was “low polyreactivity”; with “QVQLVESGGGFDQAGGSLRLSCAASGITFYDNVMGSYIQAPGKERELVAAITSGGSTNYSDSVKGRFTISRANAKNTVYLQMNSLKPEDTAVYYCAATPYGIGYDYWGQGTEVTVSS”, “low polyreactivity”; with “QVQLVESGGGFGQAGGSLRLSCAASGFTCGYYAMGWFRQAPGKERELVASISSRGGSTNYADSVKGRFTISRDHAKNTVYLQMNTMKPEDTAVYYCAAEYYRQRYEYDYWRQGTQVTVSS”, “high polyreactivity”. For “QVQLVESGGGFVQAGGSHRLSCAASGRIFSCNAMGWYRQAPGKERELVAAITWRGTSTYYADSVKGRFTISRDNAKNTVYLQMNSLKPEDTAVYYWNGDYYYPADGRHYHYDYWGQGTQVTVSS” the value was “low polyreactivity”; for “QVQLVESGGGFVQAGGSLRFSCAAYGSTFNQYAMGWYRQAPGKEREFVASITFSGGRTYYADSVQGRFTLSRDNEQNTVYLQMNSLKTEDPAVSYCNAVGYTPRKPSKFDYRGQGTQVTVSS”, “low polyreactivity”; for “QVQLVESGGGFVQAGGSLRLICAASGRIFGYYAMAWYRQAPGQERELVAAINWGGGITYYADSVKGRFTISRDNAKNTVYLQMNSLKPEDTAVYYCATDYKLVYSIYDYWGQGTQVTVSS”, “low polyreactivity”. With “QVQLVESGGGFVQAGGSLRLSCAASGFTFRKYARGWYRQAPGNERELVAVINIVGSTYYADSVKGRFTISRDNAKNTVYLQMNSLKPEDTAVYYCAADWSYRLKYYWYGGFNYWGQGTQVTVSS”, the “polyreactivity (PSR sort gate)” value is “high polyreactivity”. For “QVQLVESGGGFVQAGGSLRLSCAASGFTFWRYTMGWYRQAPGKERELVAAINWSGGRTYYADSVKARFTISRDNAKNTVYLQMNSLTPEDTAVYYCATGYSTSVGGSQGDSWGQGTQVTVSS”, the “polyreactivity (PSR sort gate)” value is on record as “high polyreactivity”. With “QVQLVESGGGFVQAGGSLRLSCAASGIIFDYNAMGWYRQAHGKERELVAAISGRSGRTYYADSVKGRFTISRDNAKNTVYLQMNSLKPEDTAVYYCAARWYAGGNYWGQGTQVTVSS” the entry was “high polyreactivity”.

For “QVQLVESGGGFVQAGGSLRLSCAASGLIFSWYDMGWYRQAPGKERELVAAITTDGDDTYYADSVKGRFTISRDNAKNTVYLQMNSLKPEDTAVYYCAADSELAIRYPDRDYDSWGQGTQVTVSS”, the “polyreactivity (PSR sort gate)” value was “low polyreactivity”. With “QVQLVESGGGFVQAGGSLRLSCAASGLTFYGNVMGWYRQAPGKERELVAAITRRGTSTYYADSVKGRFTLSRDYAKNTVYLQMNRLKPEDTAFYYCAAGTAYSRFGYWGQGTQVTVSS” the entry was “high polyreactivity”. Turning to “QVQLVESGGGFVQAGGSLRLSCAASGRIFLTNAMGWYRQAPGKERELVAAITSGGSTYYADSVKGRFTISRDNAKNTVYLQMNSLKPEDPAVYYCNADTDRYSPYEYDFWGQGTQVTVSS”, the “polyreactivity (PSR sort gate)” value was “low polyreactivity”. Turning to “QVQLVESGGGFVQAGGSLRLSCAASGRIFPGYAKGWYRQAPGKERELVAAISASGGSTYYADSVKGRFTISRDNAKNTVYLQMNSLKPEDTAVYYCNAVYRRYEYWGQGTQVTVSS”, the “polyreactivity (PSR sort gate)” value is “high polyreactivity”.

For “QVQLVESGGGFVQAGGSLRLSCAASGRIFPWNTMGWYRQATGNERELVAGITSGGSTNYADSVKGRFTISRDNAKNTVYLQMNSLKPEDTAVYNCAARGYYWYISGVYEYEYWGQGTQVTVSS”, the “polyreactivity (PSR sort gate)” value was “low polyreactivity”.

With “QVQLVESGGGFVQAGGSLRLSCAASGRIFYNYAMGWYRQAPGKERELVAAMSGSGGSTYYADSVKGRFTISRDNAKNTVYLQMNSLKPEDTAVYYCSTSGPQYYSRNVDYWGQGTQVTVSS”, the “polyreactivity (PSR sort gate)” value is “low polyreactivity”. With “QVQLVESGGGFVQAGGSLRLSCAASGSIFWLYDMGWYRQAAGKVRELVAAISWSTGGTYYADSVKGRFTISRENAKNTVYLQMNSLKPEDTAVYYCNAETYDQYNYWGQGTQVTVSS” the entry was “low polyreactivity”. On to “QVQLVESGGGFVQAGGSLRLSCAASGSILSGYAMGWYRPAPGKERELVAAITSGGDTNYADSVKGRFTISRDNAKNTVYLQMNSLKPEDTAVYYCNRRGDFRIAYYDPMDYWGQGTQVTVSS”, for which the “polyreactivity (PSR sort gate)” value is “low polyreactivity”. With “QVQLVESGGGFVQAGGSLRLSCAASGSTFGYYVMGWYRQAPGKERELVAAISASGGSTYYADSVKGRFTISRDNAKHTVYLQMNSLKPEDTAVYYCAAGGYYVRYDYWGQGTQVTVSS” the entry was “high polyreactivity”; with “QVQLVESGGGFVQAGGSLRLSCAASGSTFRFYAMGWYRQAPGKERELVAAINGSGGSTYYADSVKGRFTISRDNAKNTVYLQMNSLKPEDTAVYYCAAESNTGPGEDYWGQGTQVTVSS”, “low polyreactivity”. Turning to “QVQLVESGGGFVQAGGSLRLSCAASGYTLRIYAMGWYRQAPGKERELVAAISRSGGRTFYADSVKGRFTISRDNAKNTVYLQMNSLKPEDSAVYYCAAVPRSYDTGRMDYWGQGTQVTVSS”, the “polyreactivity (PSR sort gate)” value is “high polyreactivity”.

For the sequence “QVQLVESGGGFVQAGGSLRLSCASSGRIFRGYTMGWYRQAPGKEREFVAAIRRSGGTTYYADSVKRRFTISRDNAKNTVYLQMNSLKPEDTAVYYCAAGYPGFTYQRRKYDYWGQGTQVTVSS”, the “polyreactivity (PSR sort gate)” value is “high polyreactivity”.

For the sequence “QVQLVESGGGFVQAGGSLRVSCAASGSIFGSYAMGWYRQAPGKERELVADISSGGSTNYADSVKGRFTISRDNAKNTVYLQMNSLKPEDTAVYYCNADDPAGYLYWWGSWLESDYWGQGTQGTVSS”, the “polyreactivity (PSR sort gate)” value was “low polyreactivity”.

Turning to “QVQLVESGGGFVQAGRSLRLSCAASGSTFYIYAMGWSRQAPGKEREMVADISRGDSTNYADSVKGRFTISRDNAKNPVYLQLNSLKPEDTAVYYCNAAFRGERDWFSGRRYKFDYWGQGTQVTVSS”, the “polyreactivity (PSR sort gate)” value is listed as “low polyreactivity”.

Consider “QVQLVESGGGIVHAGGSLRLSCAASGSTIDVYDMGWYRQAPGKERELVAAITTSGGGTYYADSVKGRFTISRDNAKNTVYLQMNRLKPEDTAVYYCAADTWRDGDDYWGQGTQVTVSS”, for which the “polyreactivity (PSR sort gate)” value is given as “low polyreactivity”. With “QVQLVESGGGIVQAGCSLRFSCAASGGTFGYYTLGWYRQAPGKERQLVAAISSGGGTDYADSVKGRFTISRDNAKNTVSLQMNSLKAEDTAVYYCNAQWLEWHYVFLPSYTMDYWGLGTQVTVSS” the entry was “low polyreactivity”. For “QVQLVESGGGIVQAGCSLRLSCAASGRIFGYYSMGWYRQAPGKDTELVAAISNGGSTHYADSVKGRFTISRDNAKNTVYLHMNSLKPEDSAVYYCAARWHYGYYAYYYWGQGTQVTVSS” the value was “high polyreactivity”; for “QVQLVESGGGIVQAGGCLRLSFAASGFSFAKNAMGSYRQAPGKERELVAAIRSGGSTKYADSVNGRFTISRDNAKNTVYLQMNSLKPEDTAVYYCNARSTWSRTRPAYDYWGQGTQVTVSS”, “high polyreactivity”. In the case of “QVQLVESGGGIVQAGGRLRLSCAASGRIFDDNSMGWYRKAPGKETELVATISSSGVSTSYADSVKGRFTISRDNAKNTVYFQMNSLNPEYTAVYFCNAGYRLRYKFDYWGQGTQVTVAS”, the “polyreactivity (PSR sort gate)” value is given as “low polyreactivity”. With “QVQLVESGGGIVQAGGSHRLICAASGFTYIRYAMGWYRQAPGKERELVASISNRGGRTYYADSVKGRFTNSRDNAKNTVYLQMNSLKPEDTAVYYCAAGYSYYSWGQGTQVTVSS” the entry was “high polyreactivity”; with “QVQLVESGGGIVQAGGSLPLICAASGFTFDWYALGWYRQAPGKERELVAAITTSGGTTYYADSVKGRFTMSRDNAKITVYLQMNSLKPEDTAVFYCAADADTDVFYILQEYDYWGQGTQVTVSS”, “low polyreactivity”; with “QVQLVESGGGIVQAGGSLPLSCAASGIIFSVNAMGWYRQAPGKERELVAAITYSGGSTYYADSVKGRYTISRDNAKNTVYLQMNSLKPEVTAVYYCAAETYSSGEWYDYWGQGTQVTVSS”, “high polyreactivity”. Consider “QVQLVESGGGIVQAGGSLRLICAASGFIFVTYAMGWYRQAPGKETELVAAITNSGGTTYYADSVKGRFTISRDNAKNTVYLQMNSLKPEDTAVYYCAADVWTPYLISLKSGYDYWGQGTQVTVSS”, for which the “polyreactivity (PSR sort gate)” value was “low polyreactivity”.

Consider “QVQLVESGGGIVQAGGSLRLICAASGFTFGYYTMGWYRQAPGKEREFVAAISGSGTNTYYADSVKGRFTISRDYAKNTVYLQMNSLKPEYTAVYYCNARWSLVSSGFDGGYWGQGSQVTVSS”, for which the “polyreactivity (PSR sort gate)” value is listed as “high polyreactivity”.
